# Results as given in patent US5847088A, “Antibodies specific for platelet-activating factor acetylhydrolase” (ICOS Corporation, priority 1995, dated 1998).
# B1: PAF-AH: Recombinant human plasma platelet-activating factor acetylhydrolase (beginning at Ile42 of SEQ ID NO:8) expressed in E. coli (protein, UniProt Q13093 22-441, looked up)
# Platelet-activating factor …: FDWQYINPVAHMKSSAWVNKIQVLMAAASFGQTKIPRGNGPYSVGCTDLMFDHTNKGTFLRLYYPSQDNDRLDTLWIPNKEYFWGLSKFLGTHWLMGNILRLLFGSMTTPANWNSPLRPGEKYPLVVFSHGLGAFRTLYSAIGIDLASHGFIVAAVEHRDRSASATYYFKDQSAAEIGDKSWLYLRTLKQEEETHIRNEQVRQRAKECSQALSLILDIDHGKPVKNALDLKFDMEQLKDSIDREKIAVIGHSFGGATVIQTLSEDQRFRCGIALDAWMFPLGDEVYSRIPQPLFFINSEYFQYPANIIKMKKCYSPDKERKMITIRGSVHQNFADFTFATGKIIGHMLKLKGDIDSNVAIDLSNKASLAFLQKHLGLHKDFDQWDCLIEGDDENLIPGTNINTTNQHIMLQNSSGIEKYN
# System: antigen-induced eosinophil recruitment
# Experiment: Antigen-induced eosinophil recruitment to trachea of OVA-sensitized mice
# Assay type: in vivo, mouse
# Conditions: 750 units IV 30 minutes before and 24 hours after aerosolized OVA; 48 hours
# Description: The accumulation of eosinophils in the airway is a characteristic feature of late phase immune responses which occur in asthma, rhinitis and eczema. BALB/c mice (Charles River) were sensitized by two intraperitoneal injections consisting of 1 μg of ovalbumin (OVA) in 4 mg of aluminum hydroxide (Imject alum, Pierce Laboratories, Rockford, Ill.) given at a 2 week interval. Fourteen days following the second immunization, the sensitized mice were challenged with either aerosolized OVA or saline as a control.
# Prior to challenge mice were randomly placed into four groups, with four mice/group. Mice in groups 1 and 3 were pretreated with 140 μl of control buffer consisting of 25 mM tris, 0.5M NaCl, 1 mM EDTA and 0.1% Tween 80 given by intravenous injection. Mice in groups 2 and 4 were pretreated with 750 units of PAF-AH (activity of 5,500 units/ml given in 140 μl of PAF-AH buffer). Thirty minutes following administration of PAF-AH or buffer, mice in groups 1 and 2 were exposed to aerosolized PBS as described below, while mice in groups 3 and 4 were exposed to aerosolized OVA. Twenty-four hours later mice were treated a second time with either 140 μl of buffer (groups 1 and 3) or 750 units of PAF-AH in 140 μl of buffer (groups 2 and 4) given by intravenous injection.
# Eosinophil infiltration of the trachea was induced in the sensitized mice by exposing the animals to aerosolized OVA. […]
molecule,measurement,value
B1,eosinophils in submucosal tissue of trachea,very few eosinophils in the submucosal tissue
